# B1: HENV-98 (antibody, V domains shown)
# VH: AVQLVESGGGLVQPGGSLRLSCEASGFTFSGYWMSWVRQAPGKGLEWVANIKGDGSEKYYVDSVKGRFTIFRDNAKTSLYLQVNSLRAEDTAVYYCARERHFLAARPGYYIYSGLDVWGPGTTVTVSS
# VL: DIQMTQSPSSLSASVGDRVTITCRASQSIDNYLNWYQQKPGKVPKLLIYAASNLQSGVPSKFSGGGSGTDFTLTISSLQPDDFATYYCQQSFGTPRTFGQGTRVEIK
# B2: HENV-100 (antibody, V domains shown)
# VH: QVQLVQSGAEVKKPGASVKVSCKASGYTFTSYYINWVRQAPGQGLEWVGTINPSGGSTTYAQKFQGRVTVTRDTSTSTVYMDLSGLRSGDTAVYYCARDRKGLAATPVYSDYYYGMDVWGQGTTVTVSS
# VL: EIVLTQSPATLSLSPGERATLSCRASQSVSSFLAWYQQKPGQAPRLLISDASKRATGIPARFSGSGSGTDFSLTISSLEAEDFAVYYCQQSTNWRITFGQGTRLELK
# B3: HENV-150 (antibody, V domains shown)
# VH: EVQLLESGGGLVQPGGSLRLSCAASGFTFSSSAMSWVRQTPGKGLEWVSTISGSGANTYYAASVKGRFPISRDNSKNTLFLQMNSLRAEDTAVYYCAKVSTVTFGGHVPRGSYFDYWGQGTQVTVSS
# VL: SYVLTQPPSVSVAPGQTARIPCGGNNIGSKSVHWYQQKPGQAPVLVVYDENDRPSGIPERFSASKSGNTATLTISRVEAGDEADYYCQVWDSRSDHYVFGTGTKVTVL
# B4: HENV-141 (antibody, V domains shown)
# VH: QVQLVQSGAEVKKPGSSVKVSCKASGGTFSSYTISWVRQAPGQGLEWMGRIIPISGITNYAQKFQGRVTITADKSTSTAYMELSSLRSEDTAVYYCAKDCYYGSGTYYGCRADYQWHHTMDVWGQGTTVTVSS
# VL: DIQMTQSPSSLSASVGDRVTITCRASQGIRNDLGWFQQKPGKAPKRLIYAASSLQSGVPSRFSGSGSGTEFTLTISSLQPEDFATYFCLQHNTYPLTFGQGTKVEIK
# B5: HENV-226 (antibody, V domains shown)
# VH: EERLVQSGGGLAQPGQSLRLSCAGFGFTFTRYEMNWVRQAPGKGLEWIAHISTRGDTISYADSVKGRATISRDDTNNSLDLQMDSLRAEDTAIYFCARDRGSLSTRPPDSYHYYYHGMDVWGQGTTVIVSS
# VL: EIVLTQSPATLSLSPGERATLSCRASQSIDTYLAWYQQKPGQAPRLLIYDASNRATGIPARFSGSGSGTDFSLTISSLEPDDFAVYYCQQRSNRPPRYTFGLGTRLEIK
# B6: HENV-99 (antibody, V domains shown)
# VH: QVLLVQSGAEVRKPGASVKVSCRASGYTFTDYYMHWVRQAPGQGLEWMGWINPNSGATKYAQKFQGRVTLTRDTSINTAYMELSGLRSVDTAVFYCASVPPSGFFYWGSDYWGQGTLVTVSS
# VL: DVVLTQSPLSLPVTLGQPASISCRSSQSLVYSDGTTYLNWFQQRPGQSPRRLIYKVSYRDSGVPDRFSGSGSGTDFTLEISRVEAEDVGIYYCMHGTHWETWTFGQGTKVEIK
# B7: HENV-184 (antibody, V domains shown)
# VH: QVQLVQSGTEVKNPGSSVKVSCKASGGTFSGFGISWVRQAPGQGLEWMGGVLPIFGSPNYAQKFQGRVTITADESTGTAYMDLSSLRSDDTAMYYCARDQSGGFFDYWGQGTLVIVSS
# VL: EIVLTQSPATLSLSPGERATLSCRASQSVSSNLAWYQQKPGQAPRLLIYDASDRATGVPARFSGSGSGTDFTLTISSLEPEDFALYYCQQRYNWRVTFGQGTRLEIK
# B8: HENV-58 (antibody, V domains shown)
# VH: QVQLVQSGAEVKKPGSSVKVSCKASGGTFSNYVISWVRQAPGQGFEWMGRIIPMIGISNYAQKFQDRVTITADKDESTTTAYMELRGLRSEDTAMYYCASSTVTEVGAWGQGTLVTVSS
# VL: AIQLTQSPSSLSASIGDRVTITCRASQGISSALAWFQQKPGKPPILLIYDASSLESGVPARFSGSGSGTDFTLTISSLQPEDFATYYCQQFYNHPLTFGPGTKVDIK
# B9: HENV-117 (antibody, V domains shown)
# VH: QVQLQQWGAGLLKPSETLSLTCDLSGGSFTNYYWTWIRHLPGKGLEWLGEINHSGRTNYSPSLKSRVTISVDTSKNQFSLRLSSVTAADTAVYYCARDIRKLAPKPHSYDLYYGMDVWGQGTTVTVSS
# VL: EIVLTQSPGTLSLSPGERATLSCRASQSVGSNYLTWYQQKPGQPPRLLIYGASNRAAGIPDRFSGSGSGTDFTLTISRLEPEDFAVYYCQQYETSSRTFGQGTKVDIR
# B10: HENV-242 (antibody, V domains shown)
# VH: QVQLVQSGAEVKKPGSSVTVSCKTSGGTFSGYAVSWVRQAPGQGLEWMGRIVPQFNIPNYAQKFQDRVTITADESTGTSYMELSSLRSDDTAVFYCARENIQTIFGVVAMMGGGGYFDSWGQGTLVTVSS
# VL: DIQMTQSPSSLSASVGDRVTITCQANQDINTYLNWYLQKPGKAPQLLVFDASNLVTGVPSRFSGGGSRTDFTLTIDSLQPEDIGTYYCQQYDHLPRRTFTFGPGTKVDLK
# B11: HENV-142 (antibody, V domains shown)
# VH: QVRLQESGPRLVKPSQTLSLTCTVSGGSISSRDYYWSWIRQHPGKGLEWIGYIYYSGTTYYNPSLESRVTLSLDTSKNQFSLDLTSVTAADTAVYHCARVWLGGGVFDFWGQGTLVTVSA
# VL: EIVMTQSPDTLSVSPGERATLSCRASHSVTTNLAWYQQRPGQAPRLLIFDASTRATGIPARFSGSGSGTEFTLTIGSLQSEDFAVYYCQQYNDGRTFGQGTKVEIK
# B12: HENV-188 (antibody, V domains shown)
# VH: QVQVVESGGGVVHPGRSLRLSCAGSGFIFNNYAFHWVRQAPGGGLEWMAYISYDGRYKYYAASVRGRFTISRDDSKNTLYLQMSSLRTEDTALYYCAISDYAEPLDNWGQGTLVTVSS
# VL: QIVLTQSPATLSLSPGDRATLSCRASQSVSSNVAWYQQKPGQAPRLLIYNVSNRATGIPARFSGSGSGTDFTLTISSLEPEDFAVYYCHQRTNWPLTFGGGTKVEIK
# B13: HENV-103 (antibody, V domains shown)
# VH: QVQLQGSGPGLVKPSQTLSLTCSVSGGSVSRSGYYWGWIRQHPGKGLECIGYIYYSGITYYNPSLSGRLTISVDTSKNQFSLELSSVTAADTAVYYCARVWLGGGVFDFWGQGSLVTVSS
# VL: EIVMTQSPATLSVSPGEGATLSCRASQSVSSNLAWYQQKPGQAPRLLIYDASTRATGIPARFSGSGSGTEFTLTISSLQSEDFAVYYCQQYNDWRTFGRGTKVEMR
# B14: HENV-83 (antibody, V domains shown)
# VH: QVQLVESGGGVVQPGGSLRLSCAASGFTFRSYSMNWVRQAPGKGPEWMAVISYDGSNKYYTDSVKGRFTISRDNSKNTLNLQMNSLTSEDTAIYYCARFRGGGRIAARPDDYGMDVWGQGTTVTVST
# VL: DIQMTQSPSSLSASVGDRVTITCRASESVITYLNWYQQKPGKAPKLLIYGASTLESGVPSRFSGSGSGTVFTLTISSLQPEDIATYYCQQSYNMSPYTFGQGTKLEIK
# B15: HENV-122 (antibody, V domains shown)
# VH: EVQLLESGGGLVQPGGSLRLSCAASGFTFSTNAMSWVRQAPGKGLEWVSTVSGSGAHPNYGDSVKGRFTISRVNSKNTLFLQMSSLRAEDTAIYYCARVSTVTVGGHIPRGYYFDYWGQGTLVTVSS
# VL: EILLTQSPGTLSLSPGERATLSCRASQSASSSYLAWYQQKPGQAPRLLIYGASTRATGIPDRFSGSGSGTEFTLTISRLESEDFAVYYCHHYGSSRTFGQGTKVEVK
# B16: HENV-137 (antibody, V domains shown)
# VH: EVQLVESGGGLVQPRGSLRLSCAASGFTFSGYWMSWVRQAPGKGLEWVAKIKKDGSEKTYVDSVKGRFTISRDNAKDSLYLQMNSLRAEDTAVYYCARERLLVPAAIVGLDYYYAMDVWGQGTTVTVSS
# VL: DIQMTQSPSSLSASVGDRVTITCRASQNMSTYLNWYQQKPGKAPKFLIYGASRLQNGVPSRFSGGGSGTDFTLTISSLQPEDFATYYCQQSYNIPITFGQGTRLEIK
# Target: NiVB-G (Nipah virus, strain Bangladesh)
row,Binder,EC50
1,B1,0.58 nM
2,B2,0.514 nM
3,B3,0.332 nM
4,B4,0.778 nM
5,B5,0.361 nM
6,B6,1.16 nM
7,B7,2.32 nM
8,B8,1.44 nM
9,B9,1.2 nM
10,B10,7.67 nM
11,B11,13 nM
12,B12,1.26 nM
13,B13,1.34 nM
14,B14,2.79 nM
15,B15,0.382 nM
16,B16,0.84 nM
